# From PMC10287707
# Molecular target: T1, TIA1 RRM2-3 (Homo sapiens, UniProt P31483-2 93-274)
# T1 sequence: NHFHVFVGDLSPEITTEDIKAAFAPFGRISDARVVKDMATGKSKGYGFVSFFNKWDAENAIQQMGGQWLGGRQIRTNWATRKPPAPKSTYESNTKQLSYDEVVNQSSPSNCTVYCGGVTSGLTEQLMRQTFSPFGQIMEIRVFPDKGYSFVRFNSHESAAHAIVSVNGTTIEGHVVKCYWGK
# Assay: EMSA; 10 mM sodium phosphate pH 6.5, 50 mM NaCl, 1 mM DTT; room temperature, 20 min; 1.2% agarose; protein 0.1-10 uM; RNA annealed in 10 mM Tris pH 7.5, 100 mM KCl
# Conditions: tags: His6-SUMO (cleaved; BamHI linker Ser or Gly-Ser may stay); label: 5' Cy3
row,Binder,Kd
1,UGUUCUCUAAACGAACUUCAA (structured_RNA) [SL3 U78C],1340 ± 190 nM
2,UGUUCUCUAAACGAACUCUAA (structured_RNA) [SL3 U77C],1280 ± 180 nM
3,UGUUCUCUAAACGAACUGUAA (structured_RNA) [SL3 U77G],5770 ± 1460 nM
4,UGUUCUCUAAACGAACGUUAA (structured_RNA) [SL3 U76G],3870 ± 1250 nM
5,UGUUCUCUGAACGAACUUUAA (structured_RNA) [SL3 A68G],900 ± 110 nM
6,UGUUCUCUCAACGAACUUUAA (structured_RNA) [SL3 A68C],730 ± 80 nM
7,UGUUCUCUAAACGAACUUAAA (structured_RNA) [SL3 U78A],7540 ± 2120 nM
8,UGUUCUCUAAACGAACAUUAA (structured_RNA) [SL3 U76A],6160 ± 1850 nM
9,UGUUCUCCAAACGAACUUUAA (structured_RNA) [SL3 U67C],3340 ± 1040 nM
10,UGUUCUCUAAACGAACGGGAA (structured_RNA) [SL3-TL-G3],2770 ± 630 nM
11,UGUUCUCUAAACGAACUAUAA (structured_RNA) [SL3 U77A],4660 ± 1540 nM
12,UGUUCUCUAAACGAACCCCAA (structured_RNA) [SL3-TL-C3],2220 ± 360 nM

# Molecular target: T2, TIA1 RRM2_3 (human, UniProt P31483-2 93-274)
# T2 sequence: T1 sequence
# Assay: EMSA; EMSA: 10 mM sodium phosphate pH 6.5, 50 mM NaCl, 1 mM DTT, 1 U/ul SUPERase-In, room temperature 20 min, native 1.2% agarose; RNA annealed in 10 mM Tris-HCl pH 7.5, 100 mM KCl
# Conditions: protein: recombinant; tags: His6-SUMO removed by SUMO protease; label: 5'-Cy3; hairpin
row,Binder,Kd
1,UGUUCUCUAAACGAACUUCAA (structured_RNA) [SL3 U78C],1340 ± 190 nM
2,UGGGCUCUAAACGCCCUUUAA (structured_RNA) [SL3-GC],5650 ± 1700 nM
3,UGUUCCCCCCCCGAACUUUAA (structured_RNA) [SL3-HP-C7],1950 ± 440 nM
4,UGUUCUUUUUUUGAACUUUAA (structured_RNA) [SL3-HP-U7],540 ± 30 nM
5,UGUUCUCUACACGAACUUUAA (structured_RNA) [SL3 A69C],420 ± 40 nM
6,UGUUCUCUUAACGAACUUUAA (structured_RNA) [SL3 A68U],460 ± 50 nM

# Same assay, conditions: protein: recombinant; tags: His6-SUMO removed by SUMO protease; label: 5'-Cy3; hairpin, 1-nt 3' tail
row,Binder,Kd
1,UGUUCUCUAAACGAACU (structured_RNA) [SL3-TL1],2860 ± 550 nM

# Same assay, conditions: protein: recombinant; tags: His6-SUMO removed by SUMO protease; label: 5'-Cy3; hairpin, 3-nt loop
row,Binder,Kd
1,UGUUCUAAGAACUUUAA (structured_RNA) [SL3-HP3],3870 ± 1060 nM

# Molecular target: T2, TIA1 RRM2_3
# Assay: as above
# Conditions: protein: recombinant; tags: His6-SUMO removed by SUMO protease; label: 5'-Cy3; hairpin
# Remark: another data set of the same source
row,Binder,binding signal
1,UGUUCUCUAAACGAACUCUAA (structured_RNA) [SL3 U77C],0.29 ± 0.11 kcal/mol ddG vs WT SL3
2,UGUUCUCUAAACGAACUGUAA (structured_RNA) [SL3 U77G],1.18 ± 0.17 kcal/mol ddG vs WT SL3
3,UGUUCUCUAAACGAACGUUAA (structured_RNA) [SL3 U76G],0.94 ± 0.21 kcal/mol ddG vs WT SL3
4,UGUUCUCUGAACGAACUUUAA (structured_RNA) [SL3 A68G],0.09 ± 0.1 kcal/mol ddG vs WT SL3
5,UGUUCUCUCAACGAACUUUAA (structured_RNA) [SL3 A68C],-0.04 ± 0.1 kcal/mol ddG vs WT SL3
6,UGUUCUCUAAACGAACUUAAA (structured_RNA) [SL3 U78A],1.34 ± 0.19 kcal/mol ddG vs WT SL3
7,UGUUCUCUAAACGAACAUUAA (structured_RNA) [SL3 U76A],1.22 ± 0.2 kcal/mol ddG vs WT SL3
8,UGUUCUCCAAACGAACUUUAA (structured_RNA) [SL3 U67C],0.85 ± 0.21 kcal/mol ddG vs WT SL3
9,UGUUCUCUAAACGAACUAUAA (structured_RNA) [SL3 U77A],1.05 ± 0.2 kcal/mol ddG vs WT SL3
